Laboratory results reported in patent US20040018971A1 (published 2004).

What was measured:
HLA-A*0201 [1] = target: T1, HLA-A*0201 (human); assay: inhibition of 125I-labelled standard peptide binding to purified HLA, gel filtration; ratio = IC50 of standard / IC50 of test peptide
T1 construct: also called HLA-A2.1

HLA-A*0201 [2] = target: T2, HLA-A*0201 (human); assay: competitive inhibition of 125I-labeled probe peptide binding to purified HLA-A*0201
T2 construct: also called HLA-A2.1; A2.1

Binder	relative binding ratio (HLA-A*0201 [1])	IC50 (HLA-A*0201 [2]) [nM]
SLTEILKGGV (also called Her2/neu.144) [HER2/neu peptide, position 144, 10 amino acids]	0.015 ratio to standard peptide	
SLTLQGLGI [HER2/neu peptide, position 442, 9 amino acids]	0.0003 ratio to standard peptide	
SLTEILKGGV [Her2/neu.144]		≤ 500
